According to patent US20200299373A1 (NEURACLE SCIENCE, published 2020):
Numbering of substitutions follows the chain as printed. One block for each binder: values may come before it. Where no end group is shown, it is not given here.

How the values were obtained:
[1] = target: T1, FAM19A5 mutant M6 (human); assay: ELISA with phage-displayed FAM19A5 mutants
T1 construct: Expressed on phage; Region EP6 is replaced with the FAM19A1-4 consensus
T1 chain: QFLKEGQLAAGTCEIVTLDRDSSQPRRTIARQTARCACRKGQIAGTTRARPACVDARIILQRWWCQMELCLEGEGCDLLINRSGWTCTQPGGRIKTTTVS

[2] = target: T2, FAM19A5 mutant M2 (human); assay: ELISA with phage-displayed FAM19A5 mutants
T2 construct: Expressed on phage; It has substitutions at amino acid residues 21-25 (EP2)
T2 chain: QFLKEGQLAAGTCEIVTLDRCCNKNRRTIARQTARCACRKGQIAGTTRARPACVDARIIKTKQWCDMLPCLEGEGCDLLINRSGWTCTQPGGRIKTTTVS

[3] = target: T3, FAM19A5 mutant M7 (human); assay: ELISA with phage-displayed FAM19A5 mutants
T3 construct: Expressed on phage; Region EP7 is replaced with the FAM19A1-4 consensus
T3 chain: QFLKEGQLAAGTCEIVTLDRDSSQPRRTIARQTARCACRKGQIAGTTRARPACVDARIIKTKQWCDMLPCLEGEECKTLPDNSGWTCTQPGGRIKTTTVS

[4] = target: T4, FAM19A5 mutant M1 (human); assay: ELISA with phage-displayed FAM19A5 mutants
T4 construct: Region EP1 is replaced with the FAM19A1-4 consensus; The fusion to the phage protein is not described
T4 chain: T2 chain with I15V, V16I, T17A, L18A, D19H, C21D, C22S, N23S, K24Q, N25P

[5] = target: T5, FAM19A5 mutant M3 (human); assay: ELISA with phage-displayed FAM19A5 mutants
T5 construct: Expressed on phage; Region EP3 is replaced with the FAM19A1-4 consensus
T5 chain: T2 chain with C21D, C22S, N23S, K24Q, N25P, R27I, T28E, I29E, A30R, R31S

[6] = target: T6, FAM19A5 mutant M4 (human); assay: ELISA with phage-displayed FAM19A5 mutants
T6 construct: Expressed on phage; Region EP4 is replaced with the FAM19A1-4 consensus
T6 chain: T2 chain with C21D, C22S, N23S, K24Q, N25P, A34V, R35K, A37S, R39F, K40P

[7] = target: T7, FAM19A5 mutant M8 (human); assay: ELISA with phage-displayed FAM19A5 mutants
T7 construct: Expressed on phage; Region EP8 is replaced with the FAM19A1-4 consensus
T7 chain: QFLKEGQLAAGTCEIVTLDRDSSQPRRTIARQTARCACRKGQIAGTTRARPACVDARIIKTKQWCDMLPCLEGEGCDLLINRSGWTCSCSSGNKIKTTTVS

[8] = target: T8, FAM19A5 epitope fragment F2 conjugated to BSA (human, conjugated to BSA); assay: ELISA on coated BSA-conjugated peptide
T8 peptide: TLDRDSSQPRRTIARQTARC
Procedure: Overlapping peptide fragments (F1-F6, See FIG. 1) of the human FAM19A5 protein were synthesized and conjugated to BSA. Binding of the different anti-FAM19A5 antibodies to the BSA-conjugated peptide fragments F1-F6 was determined by ELISA assay. Briefly, FAM19A5 fragment F1-F6 (diluted to 1 μg/mL in 50 mM carbonate buffer (Biosesang) or to 20 μg/mL for high concentration analysis) were used to coat the wells of 96-well immuno plates (Thermo Scientific) (100 μL/well) overnight at 4° C. and then subsequently washed twice in 1×PBS. The plates were then blocked with the blocking buffer (100 μL/well) for 1 hour at room temperature. During the 1-hour incubation, the relevant anti-FAM19A5 antibodies were diluted to 1 μg/mL (or 20 μg/mL for high concentration analysis) in the diluent buffer. Once the plates were washed (2× using 1×PBS), the diluted anti-FAM19A5 antibodies were added to the appropriate wells, and the plates were incubated at room temperature for 1 hour. The plates were subsequently washed for a total of five times using the washing buffer. […] The absorption value of each of the wells was detected at 492 nm using a 96-well microplate reader (Molecular Device).

[9] = target: T9, FAM19A5 epitope fragment F1 conjugated to BSA (human, also: conjugated to BSA); assay: ELISA, antigen coated on the plate, antibody in solution, absorbance at 492 nm
T9 peptide: QLAAGTCEIVTLDR
Procedure: (§1) Overlapping peptide fragments (F1-F6, See FIG. 1) of the human FAM19A5 protein were synthesized and conjugated to BSA. Binding of the different anti-FAM19A5 antibodies to the BSA-conjugated peptide fragments F1-F6 was determined by ELISA assay. Briefly, FAM19A5 fragment F1-F6 (diluted to 1 μg/mL in 50 mM carbonate buffer (Biosesang) or to 20 μg/mL for high concentration analysis) were used to coat the wells of 96-well immuno plates (Thermo Scientific) (100 μL/well) overnight at 4° C. and then subsequently washed twice in 1×PBS. The plates were then blocked with the blocking buffer (100 μL/well) for 1 hour at room temperature. During the 1-hour incubation, the relevant anti-FAM19A5 antibodies were diluted to 1 μg/mL (or 20 μg/mL for high concentration analysis) in the diluent buffer. Once the plates were washed (2× using 1×PBS), the diluted anti-FAM19A5 antibodies were added to the appropriate wells, and the plates were incubated at room temperature for 1 hour. The plates were subsequently washed for a total of five times using the washing buffer. Next, the ODP substrate (prepared by dissolving one ODP tablet (0-phenylenediamine Dihydrochloride, Thermo) into 9 mL of sterilized deionized water and 1 mL of 10× stable Peroxide Stable buffer (Theromo)) was added to each of the wells, and the color change reaction was allowed to occur for 10 minutes. This reaction was stopped by adding 100 μL of 2N H2SO4 (Daejung) to the wells. The absorption value of each of the wells was detected at 492 nm using a 96-well microplate reader (Molecular Device).

[10] = target: T10, FAM19A5 epitope fragment F6 conjugated to BSA (human, conjugated to BSA); assay: as above
T10 peptide: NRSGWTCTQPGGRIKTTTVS
Procedure: as §1

[11] = target: T11, FAM19A5 epitope fragment F5 conjugated to BSA (human, conjugated to BSA); assay: as above
T11 peptide: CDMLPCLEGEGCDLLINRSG
Procedure: as §1

[12] = target: T12, FAM19A5 epitope fragment F3 conjugated to BSA (human, conjugated to BSA); assay: as above
T12 peptide: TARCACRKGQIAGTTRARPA
Procedure: as §1

[13] = target: T8, FAM19A5 epitope fragment F2 conjugated …; assay: as above
Procedure: as §1

[14] = target: T13, FAM19A5 epitope fragment F4 conjugated to BSA (human, conjugated to BSA); assay: as above
T13 peptide: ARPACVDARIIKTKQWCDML
Procedure: as §1

[15] = target: T9, FAM19A5 epitope fragment F1 conjugated …; assay: ELISA on peptide-BSA coated on the plate
Procedure: as §1

[16] = target: T10, FAM19A5 epitope fragment F6 conjugated …; assay: ELISA on peptide-BSA coated on the plate
Procedure: as §1

[17] = target: T11, FAM19A5 epitope fragment F5 conjugated …; assay: ELISA on peptide-BSA coated on the plate
Procedure: as §1

[18] = target: T12, FAM19A5 epitope fragment F3 conjugated …; assay: ELISA on peptide-BSA coated on the plate
Procedure: as §1

[19] = target: T8, FAM19A5 epitope fragment F2 conjugated …; assay: ELISA on peptide-BSA coated on the plate
Procedure: as §1

[20] = target: T13, FAM19A5 epitope fragment F4 conjugated …; assay: ELISA on peptide-BSA coated on the plate
Procedure: as §1

B1: anti-FAM19A5 antibody 1-28 (antibody, V domains shown)
VH: AVTLDESGGGLQTPGGALSLVCKASGFDFSDYGMGWVRQAPGKGLEWVAAIRSDGSNPSYGSAVKGRATISKDNGRSTVRLQLNNLRAEDTATYYCAKDGNGYCALDAYRSGGYSCGVYPGSIDAWGHGTEVIVSS
VL: ALTQPSSVSANLEGTVEITCSGSGYGYGWYQQKSPGSAPVTVIYQNDKRPSDIPSRFSGSKSGSTGTLTITGVQVEDEAVYYCGSEDSSTLAGIFGAGTTLTVL
notes: Chicken-derived scFv clone; also called Anti-FAM19A5 ("1-28")
binding result [1]: binds
binding result [2]: no binding
binding result [3]: binds
binding result [4]: binds
binding result [5]: binds
binding result [6]: binds
binding result [7]: binds
binding result [8]: binds

B2: anti-FAM19A5 antibody 2-13 (antibody, V domains shown)
VH: AVTLDESGGGLQTPGGALSLVCKASGFTFSSHGMFWVRQTPGKGLEYVAEITNDGSGTNYGSAVKGRATISRDNGQSTVRLQLNNLRAEDTGTYFCARSTYECPGGFSCWGDTGQIDAWGHGTEVIVSS
VL: ALTQPSSVSANPGETVKITCSGGSYSYGWFQQKSPGSALVTVIYWDDERPSDIPSRFSGALSGSTNTLTITGVQADDEAVYFCGTEDISGTAGVFGAGTTLTVL
notes: Chicken-derived scFv clone; also called Anti-FAM19A5 ("2-13")
binding result [1]: binds
binding result [2]: binds
binding result [3]: binds
binding result [4]: binds
binding result [5]: binds
binding result [6]: no binding
binding result [7]: no binding
O.D. [9]: 0.06
O.D. [10]: 0.06
O.D. [11]: 0.05
O.D. [12]: 0.06
O.D. [13]: 0.06
O.D. [14]: 0.05
binding result [15]: no binding
binding result [16]: no binding
binding result [17]: no binding
binding result [18]: no binding
binding result [19]: no binding
binding result [20]: no binding

Next, values leading:

binding result [1]: binds
binding result [2]: no binding
binding result [3]: binds
binding result [4]: binds
binding result [5]: binds
binding result [6]: binds
binding result [7]: binds
O.D. [13]: 3.3
B3: anti-FAM19A5 antibody 3-2 (antibody, V domains shown)
VH: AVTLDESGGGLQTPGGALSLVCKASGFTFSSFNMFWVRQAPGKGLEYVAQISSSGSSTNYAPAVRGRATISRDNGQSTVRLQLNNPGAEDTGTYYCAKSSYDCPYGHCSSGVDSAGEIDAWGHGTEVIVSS
VL: ALTQPSSVSANPGETVKITCSGGGSYAGSYYYGWYQQKAPGSAPVTLIYESNKRPSDIPSRFSGSTSGSTATLTITGVQADDEAIYYCGSWDSSNGGIFGAGTTLTVL
notes: The text reports one result for both formats, so one molecule is written here; also called h3-2; m3-2

binding result [1]: no binding
binding result [2]: binds
binding result [3]: no binding
binding result [4]: binds
binding result [5]: binds
binding result [6]: binds
binding result [7]: no binding
O.D. [9]: 0.06
O.D. [10]: 0.05
O.D. [11]: 1.5
O.D. [12]: 0.06
O.D. [13]: 0.06
O.D. [14]: 0.06
binding result [15]: no binding
binding result [16]: no binding
binding result [18]: no binding
binding result [19]: no binding
binding result [20]: no binding
B4: anti-FAM19A5 antibody 1-65 (antibody, V domains shown)
VH: AVTLDESGGGLQTPGGALSLVCKASGFTFSSYQMGWVRQAPGKGLEWVGVINKSGSDTSYGSAVKGRATISRDNGQSTVRLQLNNLRAEDTGTYFCAKGSASYITAATIDAWGHGTEVIVSS
VL: ALTQPSSVSANPGETVKITCSGGGSSGYGYGWYQQKSPSSAPLTVIYWNDKRPSDIPSRFSGSKSGSTHTLTITGVQAEDEAVYFCGNDDYSSDSGYVGVFGAGTTLTVL
